Experimental findings from article doi:10.1101/2020.04.27.064493 (bioRxiv, 2020) are described below.

B1: bovine DNMT1 RFTS domain (residues 349-594) (domain or fragment)
chain: PKCTECLQYLDDPELRYEQHPPDAVEEIQILTNERLSIFDANESGFESYEDLPQHKLTCFSVYCKRGHLCPIDTGLIEKDVELLFSGSAKPIYEDDPSPEGGINGKNFGPINEWWIAGFDGGEKALLGFSTSFAEYILMDPSPEYAPLFSVMQEKIYISKIVVEFLQSNPDSTYEDLINKIETTVPPCMLNLNRFTEDSLLRHAQFVVEQVESYDRAGDSDEQPIFLSPCMRDLIKLAGVTLGKRR

Assay [1] concerns the target G76C-mutated ubiquitin (UniProt P0CG48 1-76, G76C). Kind of assay: crystal structure.
In assay [2] the target is B1. Kind of assay: crystal structure.

Turning to B1, the binding result in assay [1] is “binds”.

B2: H3_(1-24)K9me3/K18C/K23C peptide (peptide)
peptide: not shown
modifications: trimethyl-lysine at K9
On to B2, for which the binding result in assay [1] and in assay [2] was “binds” each time.
